Source: article PMC7688639, “Biased localization of actin binding proteins by actin filament conformation” (Nature Communications, 2020)
Positions count from the first letter of the chain named. In names and notes the source's numbering stands. Each block holds one binder with its values, some of them ahead of it.

Assays:
[1] = target: T1, actin filaments (F-actin) polymerised from rabbit muscle actin (rabbit, UniProt P68135 1-377); assay: single-molecule TIRF binding kinetics (on-rate); tethered actin filaments; frequency of binding events for a range of concentrations of actin-binding domain, linear regression of frequency against concentration; details: both partners purified
[2] = target: T1, actin filaments (F-actin) polymerised …; assay: single-molecule TIRF binding kinetics (dwell times); actin filaments tethered to a PEG/biotin-PEG coverslip by streptavidin and biotin-phalloidin; labelled binding domain in solution at ~0.05–0.1 nM; 25 mM imidazole, 25 mM KCl, 4 mM MgCl2, 1 mM EGTA, 1 mM DTT, pH 7.4, 10 µg/mL beta casein; double exponential fit of the CDF, bleaching corrected; details: both partners purified

kon [1]: 2.2e+06 ± 300000 M⁻¹ s⁻¹ | average dwell time (τav) [2]: ~1.1 s | ratio of the two dwell-time scales (τ2/τ1) [2]: 18.3
B1: actin-binding domain of human utrophin (CH1–CH2, AA 1–261) (domain or fragment)
chain: MAKYGEHEASPDNGQNEFSDIIKSRSDEHNDVQKKTFTKWINARFSKSGKPPINDMFTDLKDGRKLLDLLEGLTGTSLPKERGSTRVHALNNVNRVLQVLHQNNVELVNIGGTDIVDGNHKLTLGLLWSIILHWQVKDVMKDVMSDLQQTNSEKILLSWVRQTTRPYSQVNVLNFTTSWTDGLAFNAVLHRHKPDLFSWDKVVKMSPIERLEHAFSKAQTYLGIEKLLDPEDVAVQLPDKKSIIMYLTSLFEVLPQQVTIDGGSGKCKSA
modifications: maleimide dye on the C-terminal KCK linker (Alexa-488 C5, Alexa-555 C2 or Alexa-647 C2 maleimide; Alexa-555 named as the dye of the dwell-time experiments)
notes: KCK linker on the C terminus for maleimide labelling; both cleaved by TEV; also called utrnWT; utrn ABD; source: E. coli BL21 (DE3) pLysS, purified (IMAC, TEV cleavage, size exclusion chromatography); not shown: His10, N-terminal, cleaved; z-tag, N-terminal, cleaved

kon [1]: 2.4e+06 ± 300000 M⁻¹ s⁻¹ | average dwell time (τav) [2]: ~1.3 s | ratio of the two dwell-time scales (τ2/τ1) [2]: 9.6
B2: utrophin actin-binding domain Q33A T36A K121A (domain or fragment)
chain: B1 chain with Q33A, T36A, K121A
modifications: maleimide dye on the C-terminal KCK linker (Alexa-488 C5, Alexa-555 C2 or Alexa-647 C2 maleimide; Alexa-555 named as the dye of the dwell-time experiments)
notes: KCK linker on the C terminus for maleimide labelling; also called utrnLAM; source: E. coli BL21 (DE3) pLysS, purified (IMAC, TEV cleavage, size exclusion chromatography); not shown: His10, N-terminal, cleaved; z-tag, N-terminal, cleaved

kon [1]: 5e+06 ± 2e+06 M⁻¹ s⁻¹ | average dwell time (τav) [2]: ~4.6 s
B3: utrophin actin-binding domain Q33A T36A G125A L132A (domain or fragment)
chain: B1 chain with Q33A, T36A, G125A, L132A
modifications: maleimide dye on the C-terminal KCK linker (Alexa-488 C5, Alexa-555 C2 or Alexa-647 C2 maleimide; Alexa-555 named as the dye of the dwell-time experiments)
notes: KCK linker on the C terminus for maleimide labelling; also called utrnSF; source: E. coli BL21 (DE3) pLysS, purified (IMAC, TEV cleavage, size exclusion chromatography); not shown: His10, N-terminal, cleaved; z-tag, N-terminal, cleaved
